Earlier results in patent US5770693A, “Calpain-inhibiting peptide analogs of the kininogen heavy chain” (Temple University-Of The Commonwealth System of Higher …, priority 1995, dated 1998).

Biological target: T1, papain (Carica papaya, UniProt P00784)
T1 sequence (P00784 134-345): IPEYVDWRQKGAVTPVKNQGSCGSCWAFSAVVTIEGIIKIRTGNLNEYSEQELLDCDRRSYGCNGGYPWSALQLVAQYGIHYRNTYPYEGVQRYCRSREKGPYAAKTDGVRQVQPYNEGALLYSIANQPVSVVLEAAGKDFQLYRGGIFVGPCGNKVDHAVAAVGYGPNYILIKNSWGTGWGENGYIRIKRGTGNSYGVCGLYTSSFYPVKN

Gln-Val-Val-Ala-Gly (QVVAG; printed: Gln-Val-Val-Ala-Gly) [pentapeptide contained in kininogen heavy chain domains D2 and D3]
activity in inhibiting papain (in words): weak activity
